# Assay results reported in patent US20240207432A1 (BIOSION, published 2024).
# T1: cynomolgus TROP2-his protein (cynomolgus monkey, UniProt P09758 27-272 (human entry), limits assumed)
# T1 construct: no cleavage site is stated; also called Cynomolgus monkey TROP2-his protein; monkey TROP2
# T1 chain: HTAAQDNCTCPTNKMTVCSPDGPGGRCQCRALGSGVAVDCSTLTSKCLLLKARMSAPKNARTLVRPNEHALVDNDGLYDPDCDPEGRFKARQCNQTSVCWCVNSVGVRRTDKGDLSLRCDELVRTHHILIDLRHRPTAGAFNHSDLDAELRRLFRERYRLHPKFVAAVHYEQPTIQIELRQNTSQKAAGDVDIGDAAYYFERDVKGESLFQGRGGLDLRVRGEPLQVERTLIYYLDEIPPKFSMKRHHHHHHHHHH
# T2: human TROP2-his protein (human, UniProt P09758 27-274)
# T2 construct: Biotin-labelled in the ELISAs, unlabelled analyte in Biacore; also called biotin-labeled human TROP2-his protein; biotin human Trop2-his
# T2 sequence: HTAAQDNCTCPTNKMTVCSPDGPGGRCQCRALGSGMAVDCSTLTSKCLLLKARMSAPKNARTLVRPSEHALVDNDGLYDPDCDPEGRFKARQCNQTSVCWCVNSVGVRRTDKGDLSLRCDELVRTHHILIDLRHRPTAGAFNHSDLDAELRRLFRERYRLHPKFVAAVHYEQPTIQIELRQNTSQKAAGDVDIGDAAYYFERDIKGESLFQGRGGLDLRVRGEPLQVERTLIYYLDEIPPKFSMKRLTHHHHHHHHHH
# Assays:
# [1] = biological target: T1, cynomolgus TROP2-his protein; experiment: SPR Biacore, antibody captured on chip, TROP2-his analyte
# human TROP2-his protein [2] = biological target: T2, human TROP2-his protein; experiment: as above
# human TROP2-his protein [3] = biological target: T2, human TROP2-his protein; experiment: competitive ELISA: mouse A1E4F7D4 coated at 2 ug/mL, antibody premixed with biotin human TROP2-his; blocked: binding of TROP2-his to coated A1E4F7D4
# Experimental: (§1) The mouse anti-TROP2 antibodies were tested for epitope binding in a competitive ELISA assay. […] ELISA plates were washed once with wash buffer (PBS+0.05% v/v Tween-20, PBST) and then blocked with 200 μl blocking buffer (5% w/v non-fatty milk in PBST) for 2 hours at 37° C. While blocking, the anti-TROP2 antibodies or controls were diluted with biotin labeled human TROP2-his protein (SEQ ID NO: 67, 34 ng/mL in 2.5% wA non-fatty milk in PBST), starting at 80 nM with a 5-fold serial dilution, and incubated at room temperature for 40 minutes. After plate washing for 4 times, the antibody/TROP2-his protein mixtures were added to the antibody coated plates, 100 μl per well. After incubation at 37° C. for 40 minutes, plates were washed 4 times again using wash buffer. Then the plates were added and incubated with 100 μl Peroxidase Streptavidin (1:10000 dilution in PBST buffer. Jackson Immunoresearch, Cat #016-030-084) for 40 minutes at 37° C. Plates were washed again using wash buffer. Finally, TMB was added and the reaction was stopped using 1M H₂SO₄. The absorbance of each well was read on a microplate reader using dual wavelength mode with 450 nm for TMB and 630 nm as the reference wavelength, and the OD (450-630) values were plotted against antibody concentration. Data was analyzed using Graphpad Prism software and IC₅₀ values were reported.
# human TROP2-his protein [4] = biological target: T2, human TROP2-his protein; experiment: competitive ELISA: mouse A1E11A12D1 coated at 2 ug/mL, antibody premixed with biotin human TROP2-his; blocked: binding of TROP2-his to coated A1E11A12D1; no lower plateau reached at 80 nM
# Experimental: as §1
# human TROP2-his protein [5] = biological target: T2, human TROP2-his protein; experiment: competitive ELISA: BM1 coated at 1 ug/mL, antibody premixed with biotin human TROP2-his; blocked: binding of TROP2-his to coated BM1 (self-competition)
# Experimental: as §1
# [6] = biological target: T1, cynomolgus TROP2-his protein; experiment: indirect ELISA, cynomolgus TROP2-his coated, OD(450-630)
# Experimental: The anti-TROP2 antibodies of the disclosure were tested for their cross-reaction with cynomolgus TROP2 proteins. Briefly, 96-well micro plates were coated with 100 μl 2 μg/ml cynomolgus TROP2-his proteins (prepared in-house with SEQ ID NO: 70) in carbonate/bicarbonate buffer (pH 9.6) overnight at 4° C. ELISA plates were washed once with wash buffer (PBS+0.05% v/v Tween-20, PBST) and then blocked with 200 μl/well blocking buffer (5% w/v non-fatty milk in PBST) for 2 hours at 37° C. […] After a final wash, plates were incubated with 100 μl/well TMB (Innoreagents) at room temperature. The reaction was stopped 3-10 minutes later at room temperature with 50 μl/well 1M H₂SO₄, and the absorbance of each well was read on a microplate reader using dual wavelength mode with 450 nm for TMB and 630 nm as the reference wavelength. The OD (450-630) values were plotted against antibody concentration. Data was analyzed using Graphpad Prism software and EC₅₀ values were reported.
# human TROP2-his protein [7] = biological target: T2, human TROP2-his protein; experiment: SPR Biacore T200, supernatant antibody captured on anti-human IgG CM5 chip, 40 nM human TROP2-his
# Experimental: The goat anti-human IgG (GE healthcare, Cat #BR100839, Human Antibody Capture Kit) was covalently linked to a CM5 chip instead of goat anti-mouse IgG. […] The human TROP2-his protein at the concentration of 40 nM was used instead of serially diluted human TROP2-his protein.
binder,measurement,setting,value
"mouse antibody A1E4F7D4 (antibody, V domains shown, Mouse monoclonal IgG purified from hybridoma supernatant; also called Mouse A1E4F7D4) VH: QVQLQQSGAELAKPGTSVKMSCEASGYSFTTHWIHWMKQRPGQGLEWIGTIFPSNAYAVYNQKFRDRAIMTADRSSTTAYIQLTGLTSEDSAVYYCARASYFDYWGQGTTLTVSS VL: DILLTQSPATLSVSPGERVTFSCRASQNIGTSIHWFQQRTTGSPRLLIKYASESISGIPSRFSGSGSGTDFTLHINSVESEDIAHYYCQHSHSWPFTFGSGTKLEIQ",Kd,[1],0.0489 nM
same,koff,[1],4.54e-05 s⁻¹
same,kon,[1],930000 M⁻¹ s⁻¹
same,Kd,human TROP2-his protein [2],0.0554 nM
same,koff,human TROP2-his protein [2],4.7e-05 s⁻¹
same,kon,human TROP2-his protein [2],849000 M⁻¹ s⁻¹
"mouse antibody A1E11A12D1 (antibody, V domains shown, Mouse monoclonal IgG purified from hybridoma supernatant) VH: QVQLQQSGAELARPGASVKLSCMASGYTFTTYGISWVRQRTGQGLEWIGQIYPGSDYSYCDEDFKGKATLTADKSSSTAYMQLSSLTSEDSAVYFCARASYFDYWGQGTTLTVSS VL: DILLTQSPAILSVSPGERVSFSCRASQTIGTAIHWYQQRANGSPRLLIKYASESISGIPSRFSGSGSGTDFALSINTVESEDFAYYYCQQSNNWPFTFGGGTKLEIR",IC50,human TROP2-his protein [3],0.102 nM
"mouse antibody A1H3C5H8E12 (antibody, V domains shown, Mouse monoclonal IgG purified from hybridoma supernatant) VH: QVQLQQSGAELVRPGTSVKMSCKAAGYTFTNYWIDWVKQRPGHGLEWIGNIFPGGFYTNYNEKFKGKATLTADTSSSTAYMQLSSLTSEDSAIYYCARGGVFDYWGQGTTLTVSS VL: DILLTQSPAILSVSPGERVSFSCRASQSIGTSIHWYQQRTNGSPRLLIKYASESISGIPSRFSGSGSGTDFTLSINSVESEDIADYYCQQSNSWPYTFGGGTKLEIK",IC50,human TROP2-his protein [4],9.92 nM
"benchmark (in house prepared sacituzumab) (antibody, human IgG1, kappa, V domains shown, also called BM; BM1) VH: SVQLQQSGSELKKPGASVKVSCKASGYTFTNYGMNWVKQAPGQGLKWMGWINTYTGEPTYTDDFKGRFAFSLDTSVSTAYLQISSLKADDTAVYFCARGGFGSSYWYFDVWGQGSLVTVSS VL: DIQLTQSPSSLSASVGDRVSITCKASQDVSIAVAWYQQKPGKAPKLLIYSASYRYTGVPDRFSGSGSGTDFTLTISSLQPEDFAVYYCQQHYITPLTFGAGTKVEIKR",IC50,human TROP2-his protein [5],1.28 nM
same,EC50,[6],0.138 nM
"huA1E4F7D4-V16 (antibody, human IgG1, kappa, V domains shown, Positions of the X residues are given in the claims; also called humanized antibody huA1E4F7D4-V16) VH: QVQLVQSGAEVKKPGASVKVSCKASGYSFTTHWIHWVRQAPGQGLEWIGTIFPSNAYAVYNQKFRDRATMTADTSISTAYIELSRLRSDDTAVYYCARASYFDYWGQGTTVTVSS VL: EIVLTQSPATLSLSPGERATLSCRASQNIGTSIHWFQQKPGGAPRLLIKYASESISGIPSRFSGSGSGTDFTLTISSLEPEDFAVYYCQHSHSWPFTFGQGTKLEIKR",Kd,human TROP2-his protein [7],0.137 nM
same,koff,human TROP2-his protein [7],0.000175 s⁻¹
same,kon,human TROP2-his protein [7],1.28e+06 M⁻¹ s⁻¹
